Experimental data taken from patent publication US20180362616A1, “VARIANTS OF AMYLOID beta-PROTEIN PRECURSOR INHIBITOR DOMAIN” (THE NATIONAL INSTITUTE FOR BIOTECHNOLOGY IN THE NEGEV LTD., priority 2015, published 2018).
Entries after “also recorded” stand apart in the source; their conditions may differ. Like-named read-outs stand apart in the source and are kept apart here.

Legend:
[1] = target: T1, mesotrypsin (Homo sapiens, UniProt P35030); assay: Hydrolysis of APPI variants by mesotrypsin, HPLC time course; type: biochemical; design: made in house
T1 sequence (P35030 81-304 limits assumed): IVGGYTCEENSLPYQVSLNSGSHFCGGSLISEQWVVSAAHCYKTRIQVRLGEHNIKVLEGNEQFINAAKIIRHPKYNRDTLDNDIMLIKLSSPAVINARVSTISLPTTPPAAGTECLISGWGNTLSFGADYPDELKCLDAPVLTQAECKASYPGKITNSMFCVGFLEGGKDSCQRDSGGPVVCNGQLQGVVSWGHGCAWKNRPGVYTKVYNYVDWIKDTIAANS

[2] = target: T1, mesotrypsin; assay: Mesotrypsin inhibition, cleavage of Z-GPR-pNA; type: biochemical; design: made in house
[3] = tested on: AGS cells; assay: XTT proliferation assay; type: cell-based; settings: 100 nM, 1 μM, 10 μM, 48 hours
Description: (§1) The effect of an APPI variant (SEQ ID NO: 13) on proliferation of gastric cancer cells was evaluated by XTT assay. AGS, HCT-116 and SW-480 cells were plated into 96-well plates in 9600 cells/well in duplicate, and allowed to adhere for 4 hours. Each well was supplemented with 100 nM, 1 μM, or 10 μM […] (SEQ ID NO: 13) or a vehicle (50 mM Tris-HCl, 100 mM NaCl, Ph 7.3), and cells were incubated for 48 hours. Proliferation was measured by XTT following the manufacturer instructions (Biological Industries, Ill.).

[4] = tested on: HCT-116 cells; assay: XTT proliferation assay; type: cell-based; settings: 100 nM, 1 μM, 10 μM, 48 hours
Description: as §1

[5] = tested on: SW-480 cells; assay: XTT proliferation assay; type: cell-based; settings: 100 nM, 1 μM, 10 μM, 48 hours
Description: as §1

[6] = tested on: AGS gastric cancer cells; assay: Matrigel ThinCerts invasion assay; type: cell-based
Description: The effects of […] (SEQ ID NO: 13) on the invasive behavior of AGS gastric cancer cells was examined. For invasion assays AGS cells were plated in the top chamber of a Matrigel coated […] (Greiner Bio-One, Germany), with an 8 μm pored membrane in 160 μl serum-free Ham's F-12 medium, in triplicate. 1 uM-10 uM of APPI (SEQ ID NO: 13) or a vehicle (50 mM Tris-HCl, 100 mM NaCl, Ph 7.3) in 40 μl were added to each insert. Next, the inserts were placed into the bottom chamber wells of a 24-well plate containing Ham's F-12 with 10% FBS as a chemo-attractant. After 48 hours of incubation, cells remaining on the inserts' top layers were removed by cotton swab scrubbing; Cells on the lower surface of the membrane were fixed in 100%/methanol and stained with Romanowski stain solutions. The cell numbers in 10 random fields (×20) were counted for each chamber and the average value was calculated.

[7] = target: T2, hK6 (Homo sapiens, UniProt Q92876); assay: Surface plasmon resonance, APPI on nickel chip, hK6 analyte; type: binding; settings: SPR
Description: APPIs were immobilized to a SPR nickel chip via the proteins His tag, and hK6 protein served as the analyte. The experiment was conducted at 25° C. APPI concentrations were 0.6125 nM, 1.25 nM, 2.5 nM, 5 nM, and 10 nM.
To this end, APPIs were mounted on a surface Plasmon resonance (SPR) nickel chip by their His tag, and hK6 molecules served as the analyte.

[8] = target: T2, hK6; assay: YSD binding of 50 nM hK6 in presence of active-site small molecule
Description: Next, different concentrations of the polypeptides having SEQ ID Nos: 8, 13, and 14 were tested for their ability to bind 50 nM hK6 in the presence of a small molecule which target and home the serine residue in the active pocket of hK6.

[9] = target: T1, mesotrypsin; settings: literature (Knecht et al. 2007; Radisky et al. 2003); cited from earlier work

APPIT11C/M17G/I18F/F34C: APPI variant, EVCSEQAECGPCRAGFSRWYFDVTEGKCAPFCYGGCGGNRNNFDTEEYCMAVCGSAI
Kcat ([1]; Table 4): 0.00521 s⁻¹
turnover time ([1]; Table 4): 192.21 s
Turnover time (fold) ([1]; proteolytic stability relative to APPI-WT): around 2 fold
Ki ([2]; Table 4, read-out: Ki): 149 nM

SEQ ID NO: 13: APPI variant, EVCSEQAETGPCRALFFRWYFDVTEGKCAPFVYGGCGGNRNNFDTEEYCMAVCGSAI
proliferation (XTT) [3]: did not inhibit proliferation
proliferation (XTT) [4]: did not inhibit proliferation
proliferation (XTT) [5]: did not inhibit proliferation
invasive cells per field ([6]; 10 μM APPI (b288 prints 10M), 48 hours): 1.46±0.48 cells/field
invasion capacity reduced ([6]; 10 μM APPI (b288 prints 10M), 48 hours, vs vehicle): 77%
transmembrane invasion ([6]; compared with vehicle): significantly lower transmembrane invasion capacity; also recorded: inhibits cell invasion
Kd ([7]; 25° C.): 0.351 nM
improvement in binding to hK6 ([7]; compared to APPI WT): 22.5 folds
Ki ([2]; Example 10, read-out: Ki (mesotrypsin activity)): 5.38 nM
binding to hK6 compared with SEQ ID NO: 8 ([8]; 50 nM hK6, yeast display): higher binding
binding to hK6 in presence of small molecule ([8]; high concentrations of small molecule targeting active-site Ser of hK6): diminished

bovine pancreatic trypsin inhibitor [BPTI]
proteolytic stability toward mesotrypsin [9]: the more stable of the two
